The target in one assay is T1, human LILRA6 protein (human, UniProt Q6PI73 24-447, limits assumed).
T1 construct: protein for ELISA; construct not described; also called hLILRA6 protein
In words: ELISA, LILRA6 protein. For orientation: In an ELISA, binding on a coated surface is turned into a signal by an enzyme label.

Assay [1] concerns the target T2, human LILRB4 (human, UniProt Q8NHJ6 22-448). In words: cell-based or functional assay.
Assay [2] deals with T2, human LILRB4. Nature of the assay: cell-based or functional assay. The source holds these as a separate data set.
Assay [3] deals with T2, human LILRB4. In words: cell-based or functional assay. This is another data set of the same source.
The next assay deals with T3, human LILRB3 (human, UniProt O75022 24-631).
T3 construct: whole, on cells; also called hLILRB3
Nature of the assay: FACS, 293F-hLILRB3 cells. As for the experimental part:
(§1) The protocol for FACS analysis is described as follows: [0438] (a) Cells were harvested by centrifugation at 300 g for 3 mins. […] (b) The cells were washed for 2 times with FACS buffer by centrifuging at 300 g for 3 mins and the supernatant was discarded. [0440] (c) Cell were resuspended and seeded into assay plate (2×10⁵ cells/well) in 50 μl FACS buffer. […] Cells were incubated with antibodies at 4° C. for 1 hour. […] (d) Step (b) was repeated and the cells were resuspended with 100 μl diluted 2nd antibody, incubated at 4° C. for 1 hour in the dark. [0442] (e) Step (b) was repeated and the cells were resuspended with 100 μl FACS buffer. The cells were kept in dark for FACS analysis.
(A flow cytometer gives signals particle by particle.)

Assay [4] concerns the target T2, human LILRB4. In words: FACS, 293F-hLILRB4 cells. The method, then:
as §1

Data on four molecules can be found in patent US20250361295A1 (ANTENGENE BIOLOGICS, published 2025).

T1 sequence (Q6PI73 24-447 limits assumed): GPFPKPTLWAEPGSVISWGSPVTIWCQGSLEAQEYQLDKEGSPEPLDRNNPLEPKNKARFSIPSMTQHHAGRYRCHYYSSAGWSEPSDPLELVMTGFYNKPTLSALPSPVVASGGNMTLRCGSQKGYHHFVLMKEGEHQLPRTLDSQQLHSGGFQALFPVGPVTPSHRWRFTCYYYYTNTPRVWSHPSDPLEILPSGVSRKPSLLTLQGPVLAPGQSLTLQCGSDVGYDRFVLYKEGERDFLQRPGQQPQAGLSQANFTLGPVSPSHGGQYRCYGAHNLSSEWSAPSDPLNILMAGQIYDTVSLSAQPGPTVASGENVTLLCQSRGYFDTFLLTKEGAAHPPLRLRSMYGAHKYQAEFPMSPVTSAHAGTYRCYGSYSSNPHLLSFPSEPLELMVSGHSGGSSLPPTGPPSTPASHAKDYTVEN
T3 sequence (O75022 24-631): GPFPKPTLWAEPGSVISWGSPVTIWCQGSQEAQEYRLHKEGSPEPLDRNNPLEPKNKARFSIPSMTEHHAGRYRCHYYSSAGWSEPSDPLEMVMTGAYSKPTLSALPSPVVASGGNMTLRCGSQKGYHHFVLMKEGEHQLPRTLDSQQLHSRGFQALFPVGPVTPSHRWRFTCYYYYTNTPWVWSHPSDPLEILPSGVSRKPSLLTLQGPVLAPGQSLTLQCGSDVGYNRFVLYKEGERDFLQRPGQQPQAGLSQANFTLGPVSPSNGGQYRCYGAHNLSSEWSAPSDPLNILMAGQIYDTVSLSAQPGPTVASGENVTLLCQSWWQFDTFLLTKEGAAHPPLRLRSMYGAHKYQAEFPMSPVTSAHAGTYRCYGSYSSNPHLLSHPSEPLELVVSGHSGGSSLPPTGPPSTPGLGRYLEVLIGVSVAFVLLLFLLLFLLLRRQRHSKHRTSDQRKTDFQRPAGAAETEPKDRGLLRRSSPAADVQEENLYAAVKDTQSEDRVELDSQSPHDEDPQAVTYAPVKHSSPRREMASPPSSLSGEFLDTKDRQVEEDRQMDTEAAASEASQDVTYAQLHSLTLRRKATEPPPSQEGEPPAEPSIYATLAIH

B1: ch2-H1-D7-E5-D5 (antibody, V domains shown)
VH: EVHLVESGGGLVQPGGSRKLSCAASGFTFSSFGMHWVRQPPEKGLEWVAYISSGSSSIYYADTVKGRFTISRDNPKNTLFLQMTSLRSEDTAMYYCARGTGTGAMDYWGQGTSVTVSS
VL: DIQMTQTTSSLSASLGDRVTISCRTSQDISNYLNWYQQKPDGTVKLLIYYTSKLHSGVPSRFSGSGSGTDYSLTISNLDQEDIATYFCQQGNTLPWTFGGGTKLEIK
The EC50 is the concentration at which the effect is half-maximal. The low end stands for greater potency, the high end for weaker potency. As for B1, the binding result with human LILRA6 protein is reported as “no binding”. In the assay with human LILRB4 [1], the “EC50 (nM), ADCC on THP-1 cells” value was 7.34 nM and the “Max cell cytotoxicity (%), ADCC on THP-1 cells” value (“Max cell cytotoxicity (%), ADCC” below) came to 39.6%. Besides, in the assay with human LILRB4 [2], the “ADCP (%) at 133.3 nM, macrophages and MV-4-11 cells” value (“ADCP (%) at 133.3 nM” for short) was determined as 27.9%. In addition, in the assay with human LILRB4 [3], the “FcγR stimulation (TNF-α, pg/mL)” value was determined as 325 pg/mL and the “Fold change (Compared to isotype)” value was 10.3 fold. For the same molecule, the binding result in the assay with human LILRB3 is recorded as “no binding (tested: up to 66.67 nM)”. For the same molecule, in the assay with human LILRB4 [4], the EC50 amounted to 1.6 nM and the “Max MFI” value turned out to be 38300 MFI.

B2: ch26-H9-B9-B7 (antibody, V domains shown)
VH: EVQRVESGGGLVQPGGSRKLSCAASGFTFSSFGMHWVRQAPEKGLEWVAYISSGSSTIYYADTVKGRFTISRDNPKNTLFLQMTSLRSEDTAMYYCARSDGKGAMDYWGQGTSVTVSS
VL: DIVMTQSTSSLSASLGDRVTISCRASQDISNYLNWYQQKPDGTVKLLIYYTSRLHSGVPSRFSGSGSGTDYSLTISNLEQEDIATYFCQQGNTLPWTFGGGTKLEIK
For the molecule B2, the binding result with human LILRA6 protein was “no binding”. Moreover, the “Max cell cytotoxicity (%), ADCC” value with human LILRB4 [1] was 15.2%. Besides, the “ADCP (%) at 133.3 nM” value with human LILRB4 [2] is 16.1%. Further, in the assay with human LILRB4 [3], the “FcγR stimulation (TNF-α, pg/mL)” value was 547 pg/mL and the “Fold change (Compared to isotype)” value was found to be 17.3 fold. In addition, the binding result in the assay with human LILRB3 is recorded as “no binding (tested: up to 66.67 nM)”. In the assay with human LILRB4 [4], the EC50 is 1.66 nM and the “Max MFI” value came out at 46000 MFI.

B3: ch27-D11-C2-A10 (antibody, V domains shown)
VH: EVQLVESGGGLVQPGGSRKLSCAASGFTFSVFGVHWVRQAPEKGLEWVAYISSGSNTIHYADTVKGRFTISRDIPKNTLFLQMTSLRSEDTAMYYCARSSGTGAMDYWGQGTSVTVSS
VL: DIQMTQSTSSLSASLGDRVSISCRASQDISNYLNWYQQKPDGAVKLLIYYTSRLHSGVPSRFSGSGSGTDYSLTISNLDQEDIATYFCQQGNTLPWTFGGGTKLELK
Turning to B3, the binding result with human LILRA6 protein is on record as “no binding”. In the assay with human LILRB4 [1], the “Max cell cytotoxicity (%), ADCC” value came out at 20.2%. In addition, the “ADCP (%) at 133.3 nM” value with human LILRB4 [2] turned out to be 12.1%. Besides, in the assay with human LILRB4 [3], the “FcγR stimulation (TNF-α, pg/mL)” value came to 666 pg/mL and the “Fold change (Compared to isotype)” value came out at 21.1 fold. The binding result with human LILRB3 is “no binding (tested: up to 66.67 nM)”. In the assay with human LILRB4 [4], the EC50 is 1.43 nM and the “Max MFI” value amounted to 46800 MFI.

B4: ch10-H9-E3-G3 (antibody, V domains shown)
VH: EVQRVESGGGLVQPGGSRKLSCAASGFTFSSFGMHWVRQAPEKGLEWVAYISSGSSAMYYADTVKGRFTISRDNPKNTLFLQMTSLRSEDTAMYYCARSDGKGAMDYWGQGTSVTVSS
VL: DIQMTQTTSSLSASLGDRVTISCRASQDISNYLNWYQQKPDGTVKLLVYYTSRLHSGVPSRFSGSGSGTDYSLTISNLEQEDIATYFCQQGNTLPWTFGGGTKLEIK
As for B4, in the assay with human LILRA6 protein, the binding result is on record as “no binding”. Besides, in the assay with human LILRB4 [1], the “Max cell cytotoxicity (%), ADCC” value came to 16.6%. The “ADCP (%) at 133.3 nM” value with human LILRB4 [2] turned out to be 13.7%. Also, in the assay with human LILRB4 [3], the “FcγR stimulation (TNF-α, pg/mL)” value is 389 pg/mL and the “Fold change (Compared to isotype)” value stood at 12.3 fold. The binding result with human LILRB3 is reported as “no binding (tested: up to 66.67 nM)”. For the same molecule, in the assay with human LILRB4 [4], the EC50 came out at 1.41 nM and the “Max MFI” value was found to be 45200 MFI.
